According to patent US20180016348A1:

Experiments:
Assay in all cases: cell-based or functional assay
[1] = target: neuraminidase (NA) of H1N1 A/California/07/2009 (influenza A virus H1N1 A/California/07/2009)
[2] = target: neuraminidase (NA) of H5N1 A/Vietnam/1194/2004 (NIBRG-14) (influenza A virus H5N1 A/Vietnam/1194/2004 (NIBRG-14))
[3] = target: neuraminidase (NA) of H1N1 A/Brisbane/59/2007 (influenza A virus H1N1 A/Brisbane/59/2007)
[4] = target: neuraminidase (NA) of H3N2 A/Perth/16/2009 (influenza A virus H3N2 A/Perth/16/2009)

B1: CR12042 (antibody, V domains shown)
VH: EVQLVESGAEVRKPGSSVKVSCTASGDTFSSYTITWVRQAPGQGLEWMGEIIPIFGTANYAQKFQGRVTLTADESTTTAYMDLSSLRSEDTAVYYCARGPDNHSDRYFYYGMDVWGQGTTVTVSS
VL: EIVLTQSPLSLPVTPGEPASISCRSSQSLLHSTGNNYLDWYLQKPGQSPQLLIYLGSNRASGVPDRFSGSGSGTDFTLKISRVEAEDVGVYYCMQALQTPRTFGQGTKVDIK
[1]
  IC50 of virus neutralization (VNA on MDCK cells): 0.26 µg/mL
[2]
  IC50 of virus neutralization (VNA on MDCK cells): 5.45 µg/mL
[3]
  EC50 of neuraminidase inhibition (NA-XTD assay, whole virus): 0.11 µg/mL
[4]
  EC50 of neuraminidase inhibition (NA-XTD assay, whole virus): 5.01 µg/mL
  IC50 of virus neutralization (VNA on MDCK cells; one experiment): > 100 µg/mL
